The record followed here is patent US20210363266A1 (JIANGSU HENGRUI MEDICINE, published 2021).

Read-outs that look alike come from different tables or passages of the source.

The target of assay [1] is T1, human 4-1BB His protein (Sinobiological, Beijing #10041-H08H) (human, UniProt Q07011 24-186, biotinylated in the capture ELISA (sites not given)).
T1 construct: Bought protein; also called biotinylated 4-1BB-his protein; not shown: His tag
The assay can be described thus: SPR Biacore T200, antibody amine-coupled, 4-1BB His as analyte, 1:1 model. As for the experimental part:
(§1) The recombinant anti-4-1BB antibodies to be tested of the present application were covalently linked to CMS (GE) chip by NHS standard amino coupling method with a kit available from Biacore. Then, a series of gradient concentrations of human 4-1BB His protein (Sinobiological, Beijing #10041-H08H) diluted in the same buffer were injected at a flow rate of 10 μL/min. Regeneration was performed with regeneration reagents provided in the kit. Antigen-antibody binding kinetics were followed for 3 minutes and dissociation kinetics were followed for 10 minutes. The resulting data were analyzed using 1:1 (Langmuir) binding model with BIAevaluation software available from GE.
(In SPR one partner is held on a chip, and binding of the other changes the refractive index at the surface.)

Assay [2] addresses human 4-1BB on the reporter cell strain HEK293F-h4-1BB-NFkB (human, UniProt Q07011 24-255). The assay can be described thus: cell-based or functional assay.
Assay [3] addresses T1, human 4-1BB His protein …. The assay can be described thus: blocking ELISA: 4-1BB-his coated, antibody varied, competitor 4-1BBL-Fc at 0.8 ng/ml. As for the experimental part: (§2) The 4-1BB-his protein was diluted to a concentration of 2 μg/ml with a carbonate buffer pH 9.6, and added into a 96-well microtiter plate at a volume of 100 μl/well, and placed in an incubator at 37° C. for 2 hours. The plate was washed once with PBST, 200 μl/well of 5% skim milk (skim milk powder, Bright Dairy) blocking solution diluted with PBST was added, and incubated at 37° C. for 2 hours or at 4° C. overnight (16-18 hours) for blocking. After the blocking was finished, the blocking solution was discarded and the plate was washed 4 times with PBST.
The test mouse sera or antibodies and internal control 4-1BBL were diluted to various concentrations with a sample diluent solution (2.5% skim milk in PBST), added into a plate at 100 μl/well, and incubated in an incubator at 37° C. for 40 minutes. After the incubation, the plate was washed 4 times with PBST, 100 μl/well of 0.8 ng/ml 4-1BBL-Fc (Acro, #41L-H5257) protein diluted with a sample dilution solution was added, and incubated at 37° C. for 40 minutes. […] The absorbance was read at 450 nm under a microplate reader (Beijing Prang New Technology Co., Ltd., Model DNM-9602) and the resulting data were analyzed. […]
On the technique in general: An ELISA detects its analyte on a solid surface through an enzyme-linked reagent.

Assay [4] deals with T1, human 4-1BB His protein …. The assay can be described thus: capture ELISA, antibody captured, biotinylated 4-1BB-his. As for the experimental part:
as §2, with “goat anti-mouse IgG secondary antibody (Jackson Immuno Research, cat #115-006-071)” for “4-1BB-his protein”, “PBS buffer,” for “a carbonate buffer”, “7.4,” for “9.6, and”, “at” for “at a volume of”
The test mouse sera or antibodies were diluted to various concentrations with 5% NHS sample dilution solution (2.5% skim milk in PBST), incubated at room temperature for 40 minutes, added into the plate at 100 μl/well, and incubated at 37° C. for 40 minutes. After the incubation, the plate was washed 4 times with PBST, 100 μl/well of the biotinylated 4-1BB-his protein (Sinobiological, Beijing #10041-H08H) diluted with the sample dilution solution was added, and incubated at 37° C. for 40 minutes. After the incubation, the plate was washed 4 times with PBST, 100 μl/well of HRP-labeled streptavidin (Jackson Immuno Research, cat #016-030-084) diluted with PBST was added, and incubated at 37° C. for 40 minutes. The plate was washed 4 times with PBST, 100 μl/well of TMB chromogenic substrate (Huzhou Innoreagents Biotechnology Co., Ltd.) was added, incubated at room temperature for 10-15 min in the dark, and 50 μl/well 1M H₂SO₄ was added to terminate the reaction. The absorbance was read at 450 nm under a microplate reader (Beijing Prang New Technology Co., Ltd., Model DNM-9602) and the resulting data were analyzed. The capture ELISA results of three hybridoma mouse antibodies and the Pfizer reference antibody MOR7480 and the BMS reference antibody Urelumab were shown in FIG. 1.

The target in assay [5] is T1, human 4-1BB His protein …. The assay can be described thus: SPR Biacore T200, antibody amine-coupled, 4-1BB His as analyte, 1:1 model. How it is done: as §1
The source holds these as a separate data set.

In assay [6] the target is T1, human 4-1BB His protein …. The assay can be described thus: SPR Biacore T200.

Chain of human 4-1BB on the reporter cell strain HEK293F-h4-1BB-NFkB (Q07011 24-255): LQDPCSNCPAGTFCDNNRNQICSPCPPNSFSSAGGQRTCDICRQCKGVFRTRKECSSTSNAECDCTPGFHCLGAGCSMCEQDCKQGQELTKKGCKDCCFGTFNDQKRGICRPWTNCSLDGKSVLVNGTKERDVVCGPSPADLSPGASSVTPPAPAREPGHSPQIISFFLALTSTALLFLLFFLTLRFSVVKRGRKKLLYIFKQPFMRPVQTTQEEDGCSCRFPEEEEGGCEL

B1: humanized antibody huB1E7 (VH-c heavy chain and VL-c light chain) (antibody, human IgG2, kappa, V domains shown)
VH: EVQLVQSGAEVKKPGSSVKVSCKASGYTFTSYGLNWVRQAPGQGLEWMGYINPGSGYTKYNEKFEGRVTITADKSTSTAYMELSSLRSEDTAVYYCARWGLGRNWNFAVWGQGTLVTVSS
VL: DIVMTQSPDSLAVSLGERATINCRASESVDSYGNTFMHWYQQKPGQPPKLLIYRASNLESGVPDRFSGSGSGTDFTLTISSLQAEDVAVYYCQQSNEDPLTFGQGTKLEIKR
notes: also called huB1E7-IgG1
By Kd is commonly meant the free concentration of one partner at which half of the binding sites on the other are occupied at equilibrium, for simple one-to-one binding. As usually defined, the koff is the first-order rate constant of dissociation. A low value points to a long-lived complex. Broadly, the kon is the rate constant with which the complex forms. A lower kon goes with slow association. In assay [1], B1 yielded a Kd of 1.95 nM, a koff of 0.00663 s⁻¹ and a kon of 3.39e+06 M⁻¹ s⁻¹.

B2: murine mAb B1E7 (antibody, V domains shown)
VH: EVQLQQSGAELVRAGSSVEMSCKASGYTFTSYGLNWVKQRPGQGLEWIGYINPGSGYTKYNEKFEGKTTLTVDKSSSTVYMQLRSLTSEDSAVYFCARWGLGRNWNFAVWGTGTTVTVSS
VL: DIVLTQSPASLAVSLGQRATMSCRASESVDSYGNTFMHWYQQKPGQPPKLLIYRASNLESGIPARFSGSGSGTDFTLTINPVEADDVATYYCQQSNEDPLTFGSGTKLEIK
notes: Murine hybridoma antibody
For orientation: EC50 means the concentration giving half of the maximal effect. The low end stands for higher potency in that assay, the high end for lower potency in that assay. In assay [2], B2 displayed a luciferase activity of 1100. For the same molecule, the results for the EC50 in assay [3] and in assay [4] were 0.592 µg/mL and 0.332 µg/mL, respectively.

B3: chimeric antibody ChB1E7 (antibody, V domains shown)
VH: B2 VH
VL: B2 VL
In assay [5], B3 yielded a Kd of 1.48 nM, a dissociation rate constant (koff) of 0.006 s⁻¹ and an on-rate (kon) of 4.05e+06 M⁻¹ s⁻¹.

B4: murine mAb B1E10 (antibody, V domains shown)
VH: EVQLVESGGGLVEPGGSLKLSCAASGFTFGDYYMYWVRQTPEKRLEWVATISDGGSYTYYPDNVKGRFTISRDNAKNSLDLQMSHLKSEDTAMYYCARYYSKALYAMDYWGRGTSVTVSS
VL: DIVLTQSPASLAVSLGQRATLSCRASKSVSTSGFSYIHWYQQKPGQPPKLLIYTASNLESGVPARFSGSGSGTDFTLNIHPVEEEDAATYYCQHSRELPLTFGAGTKLEVK
notes: Murine hybridoma antibody
As for B4, the luciferase activity in assay [2] turned out to be 2520. This molecule yielded an EC50 in assay [4] of 0.881 µg/mL.

B5: chimeric antibody ChB1E10 (antibody, V domains shown)
VH: B4 VH
VL: B4 VL
In assay [5], B5 returned a dissociation constant Kd of 0.423 nM, a koff of 0.000542 s⁻¹ and a kon of 1.28e+06 M⁻¹ s⁻¹.

B6: MOR7480 (Pfizer) (antibody, V domains shown)
VH: QVQLVQSGAEVKKPGESLKISCKGSGYSFSTYWISWVRQMPGKGLEWMGKIYPGDSYTNYSPSFQGQVTISADKSISTAYLQWSSLKASDTAMYYCARGYGIFDYWGQGTLVTVSS
VL: DIELTQPPSVSVAPGQTARISCSGDNIGDQYAHWYQQKPGQAPVVVIYQDKNRPSGIPERFSGSNSGNTATLTISGTQAEDEADYYCATYTGFGSLAVFGGGTKLTVL
In assay [1], B6 registered a Kd of 0.417 nM, a koff of 0.000336 s⁻¹ and an on-rate (kon) of 805000 M⁻¹ s⁻¹. In assay [5], this molecule yielded a Kd of 0.417 nM, a koff of 0.000336 s⁻¹ and a kon of 805000 M⁻¹ s⁻¹. In addition, it took 0.084 µg/mL to reach a half-maximal effect in assay [4] (EC50).

B7: humanized antibody huB1E10 (VH-c heavy chain and VL-c light chain) (antibody, human IgG2, kappa, V domains shown)
VH: EVQLVESGGGVVQPGRSLRLSCAASGFTFGDYYMYWVRQAPGKGLEWVATISEGGSYTYYPDNVKGRFTISRDNAKNTLYLQMNSLRAEDTAVYYCARYYSKALYAMDYWGRGTLVTVSS
VL: EIVLTQSPATLSLSPGERATLSCRASKSVSTSGFSYIHWYQQKPGQPPRLLIYTASNLESGVPARFSGSGSGTDFTLTISSLEPEDFAVYYCQHSRELPLTFGQGTKLEVKR
notes: also called huB1E10-IgG1
As to B7, in assay [1], the Kd is 0.267 nM, the koff came out at 0.00263 s⁻¹ and the association rate constant (kon) was 9.85e+06 M⁻¹ s⁻¹. The “fold affinity against the reference antibody MOR7480” value in assay [6] is about 2 fold.

B8: murine mAb B1A7 (antibody, V domains shown)
VH: QVTLKESGPGILQPSQTLSLTCSFSGFSLSTSGMGVGWIRQPSGKGLEWLAHIWWDDVKRYNPALKSRLTISKDTSSSQVFLKIASVDTADTATYYCAQMTSSVFAYWGQGTLVTVSA
VL: DIVLTQSPDSLAVSLGQRATISCRASESVDSYGHSFMHWYQQKPGQPPKLLIYRASNLESGIPARFSGSGSRTDFTLTINVVEADDVATYYCHQSYEEPWTFGGGTKLEIK
notes: Murine hybridoma antibody
B8 showed a luciferase activity in assay [2] of 965. Moreover, the EC50 in assay [3] came to 0.417 µg/mL; in assay [4] it was 0.0559 µg/mL.
